Laboratory results from PMC9482650, “Quantitative fragmentomics allow affinity mapping of interactomes” (Nature Communications, 2022).

T1: PDZD7_3, Q9H5P4
T1 sequence (Q9H5P4 857-944, limits assumed, looked up): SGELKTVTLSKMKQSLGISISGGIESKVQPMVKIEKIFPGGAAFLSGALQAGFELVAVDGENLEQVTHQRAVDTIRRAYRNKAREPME

T2: PARD3B_1, Q8TEW8
T2 sequence (Q8TEW8 196-299, limits assumed, looked up): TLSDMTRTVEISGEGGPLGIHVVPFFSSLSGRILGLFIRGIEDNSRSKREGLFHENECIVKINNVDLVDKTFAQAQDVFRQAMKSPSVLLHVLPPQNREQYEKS

T3: FRMPD1, Q5SYB0
T3 sequence (Q5SYB0 52-145, limits assumed, looked up): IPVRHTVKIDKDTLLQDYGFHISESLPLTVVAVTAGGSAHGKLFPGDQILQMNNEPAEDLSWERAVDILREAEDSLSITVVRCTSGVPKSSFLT

T4: SIPA1L2, Q9P2F8
T4 sequence (Q9P2F8 945-1036, limits assumed, looked up): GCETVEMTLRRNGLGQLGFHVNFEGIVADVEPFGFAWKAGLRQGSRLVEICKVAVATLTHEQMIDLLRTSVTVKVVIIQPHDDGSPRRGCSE

T5: DFNB31_1, Q9P202
T5 sequence (Q9P202 135-233, limits assumed, looked up): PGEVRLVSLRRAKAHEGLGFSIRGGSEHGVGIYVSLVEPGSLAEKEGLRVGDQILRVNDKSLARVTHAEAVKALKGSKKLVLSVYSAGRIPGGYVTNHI

T6: ARHGAP21, Q5T5U3
T6 sequence (Q5T5U3 45-169, limits assumed, looked up): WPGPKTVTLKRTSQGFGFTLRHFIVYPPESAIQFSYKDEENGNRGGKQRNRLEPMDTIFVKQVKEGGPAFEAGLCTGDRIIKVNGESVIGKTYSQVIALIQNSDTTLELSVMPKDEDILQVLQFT

T7: SNTA1, Q13424
T7 sequence (Q13424 82-180, limits assumed, looked up): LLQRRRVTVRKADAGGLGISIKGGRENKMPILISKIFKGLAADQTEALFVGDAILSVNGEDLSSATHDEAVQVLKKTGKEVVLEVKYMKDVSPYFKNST

T8: APBA2_2, Q99767
T8 sequence (Q99767 654-744, limits assumed, looked up): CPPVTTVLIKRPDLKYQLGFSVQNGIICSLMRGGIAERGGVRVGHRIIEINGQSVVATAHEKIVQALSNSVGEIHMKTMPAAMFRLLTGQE

T9: CARD11, Q9BXL7
T9 sequence (Q9BXL7 662-765, limits assumed, looked up): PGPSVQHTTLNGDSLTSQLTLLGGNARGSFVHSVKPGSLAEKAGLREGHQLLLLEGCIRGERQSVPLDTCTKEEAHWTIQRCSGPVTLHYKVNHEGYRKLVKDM

T10: DFNB31_3, Q9P202
T10 sequence (Q9P202 811-907, limits assumed, looked up): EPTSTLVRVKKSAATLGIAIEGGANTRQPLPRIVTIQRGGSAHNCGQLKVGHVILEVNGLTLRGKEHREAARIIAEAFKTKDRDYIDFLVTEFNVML

T11: HTRA3, P83110
T11 sequence (P83110 354-453, limits assumed, looked up): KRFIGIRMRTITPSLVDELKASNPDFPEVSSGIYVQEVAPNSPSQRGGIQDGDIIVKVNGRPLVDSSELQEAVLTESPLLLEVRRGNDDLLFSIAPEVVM

T12: SNTG1, Q9NSN8
T12 sequence (Q9NSN8 52-150, limits assumed, looked up): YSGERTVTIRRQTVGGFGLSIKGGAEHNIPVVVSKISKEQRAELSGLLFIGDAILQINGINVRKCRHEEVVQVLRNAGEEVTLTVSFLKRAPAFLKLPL

T13: TJP3_3, O95049
T13 sequence (O95049 375-456, limits assumed, looked up): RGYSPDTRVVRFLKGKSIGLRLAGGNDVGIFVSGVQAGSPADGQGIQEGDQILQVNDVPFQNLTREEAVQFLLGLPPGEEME

B1: IGSF5, Q9NSI5 (peptide)
chain: PEKVSNTTVV
B2: SLC22A11, Q9NSA0 (peptide)
chain: EAVTVESTSL
B3: KCNB1, Q14721 (peptide)
chain: AHGSTRDQSI
B4: DFNB31, Q9P202 (peptide)
chain: FLVTEFNVML

Target: SCRIB_1, Q14160
Sequence (Q14160 718-814): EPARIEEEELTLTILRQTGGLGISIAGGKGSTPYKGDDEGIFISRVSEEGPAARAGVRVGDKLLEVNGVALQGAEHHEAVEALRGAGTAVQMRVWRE
Experiment: holdup assay
Design: key: below the threshold = too weak to quantify, mostly under pKd 3.1 to 4
Settings: plain residues with an end cap or a label only (N-terminal biotin on a linker: ado-ado)

| Binder | pKd |
| --- | --- |
| B1 | 3.56 |
| B2 | 4.56 |
| B3 | below the threshold |
| B4 | 3.86 |

Target: T1, PDZD7_3, Q9H5P4
Experiment: holdup assay
Design: key: below the threshold = too weak to quantify, mostly under pKd 3.1 to 4
Settings: plain residues with an end cap or a label only (N-terminal biotin on a linker: ado-ado)

| Binder | pKd |
| --- | --- |
| B1 | 4.66 |
| B2 | 4.8 |
| B3 | 3.67 |
| B4 | 4.47 |

Target: MAGI1_2, Q96QZ7
Sequence (Q96QZ7 456-580): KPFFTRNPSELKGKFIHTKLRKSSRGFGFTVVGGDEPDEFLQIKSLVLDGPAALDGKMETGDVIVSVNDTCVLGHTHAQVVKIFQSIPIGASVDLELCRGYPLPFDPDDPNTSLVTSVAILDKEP
Experiment: holdup assay
Design: key: below the threshold = too weak to quantify, mostly under pKd 3.1 to 4
Settings: plain residues with an end cap or a label only (N-terminal biotin on a linker: ado-ado)

| Binder | pKd |
| --- | --- |
| B1 | 3.54 |
| B2 | below the threshold |
| B3 | below the threshold |
| B4 | below the threshold |

Target: T2, PARD3B_1, Q8TEW8
Experiment: holdup assay
Design: key: below the threshold = too weak to quantify, mostly under pKd 3.1 to 4
Settings: plain residues with an end cap or a label only (N-terminal biotin on a linker: ado-ado)

| Binder | pKd |
| --- | --- |
| B1 | below the threshold |
| B2 | 4.43 |
| B3 | below the threshold |
| B4 | 5.21 |

Target: T3, FRMPD1, Q5SYB0
Experiment: holdup assay
Design: key: below the threshold = too weak to quantify, mostly under pKd 3.1 to 4
Settings: plain residues with an end cap or a label only (N-terminal biotin on a linker: ado-ado)

| Binder | pKd |
| --- | --- |
| B1 | below the threshold |
| B2 | below the threshold |
| B3 | below the threshold |
| B4 | below the threshold |

Target: T4, SIPA1L2, Q9P2F8
Experiment: holdup assay
Design: key: below the threshold = too weak to quantify, mostly under pKd 3.1 to 4
Settings: plain residues with an end cap or a label only (N-terminal biotin on a linker: ado-ado)

| Binder | pKd |
| --- | --- |
| B1 | below the threshold |
| B2 | below the threshold |
| B3 | 3.58 |
| B4 | below the threshold |

Target: GRIP2_7, Q9C0E4
Sequence (Q9C0E4 934-1023): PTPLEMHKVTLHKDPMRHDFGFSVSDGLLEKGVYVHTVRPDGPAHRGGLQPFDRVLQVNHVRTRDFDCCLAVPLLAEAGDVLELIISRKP
Experiment: holdup assay
Design: key: below the threshold = too weak to quantify, mostly under pKd 3.1 to 4
Settings: plain residues with an end cap or a label only (N-terminal biotin on a linker: ado-ado)

| Binder | pKd |
| --- | --- |
| B1 | below the threshold |
| B2 | below the threshold |
| B3 | below the threshold |
| B4 | below the threshold |

Target: T5, DFNB31_1, Q9P202
Experiment: holdup assay
Design: key: below the threshold = too weak to quantify, mostly under pKd 3.1 to 4
Settings: plain residues with an end cap or a label only (N-terminal biotin on a linker: ado-ado)

| Binder | pKd |
| --- | --- |
| B1 | below the threshold |
| B2 | 3.98 |
| B3 | below the threshold |
| B4 | below the threshold |

Target: T6, ARHGAP21, Q5T5U3
Experiment: holdup assay
Design: key: below the threshold = too weak to quantify, mostly under pKd 3.1 to 4
Settings: plain residues with an end cap or a label only (N-terminal biotin on a linker: ado-ado)

| Binder | pKd |
| --- | --- |
| B1 | below the threshold |
| B2 | 4.12 |
| B3 | below the threshold |
| B4 | 4.61 |

Target: T7, SNTA1, Q13424
Experiment: holdup assay
Design: key: below the threshold = too weak to quantify, mostly under pKd 3.1 to 4
Settings: plain residues with an end cap or a label only (N-terminal biotin on a linker: ado-ado)

| Binder | pKd |
| --- | --- |
| B1 | 3.93 |
| B2 | 3.65 |
| B3 | below the threshold |
| B4 | 3.73 |

Target: T8, APBA2_2, Q99767
Experiment: holdup assay
Design: key: below the threshold = too weak to quantify, mostly under pKd 3.1 to 4
Settings: plain residues with an end cap or a label only (N-terminal biotin on a linker: ado-ado)

| Binder | pKd |
| --- | --- |
| B1 | below the threshold |
| B2 | below the threshold |
| B3 | below the threshold |
| B4 | below the threshold |

Target: T9, CARD11, Q9BXL7
Experiment: holdup assay
Design: key: below the threshold = too weak to quantify, mostly under pKd 3.1 to 4
Settings: plain residues with an end cap or a label only (N-terminal biotin on a linker: ado-ado)

| Binder | pKd |
| --- | --- |
| B1 | below the threshold |
| B2 | below the threshold |
| B3 | below the threshold |
| B4 | below the threshold |

Target: LIMK2, P53671
Sequence (P53671 143-248): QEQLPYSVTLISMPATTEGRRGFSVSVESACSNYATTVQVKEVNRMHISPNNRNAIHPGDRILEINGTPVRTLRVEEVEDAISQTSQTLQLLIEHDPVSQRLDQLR
Experiment: holdup assay
Design: key: below the threshold = too weak to quantify, mostly under pKd 3.1 to 4
Settings: plain residues with an end cap or a label only (N-terminal biotin on a linker: ado-ado)

| Binder | pKd |
| --- | --- |
| B1 | below the threshold |
| B2 | below the threshold |
| B3 | below the threshold |
| B4 | below the threshold |

Target: GRIP2_3, Q9C0E4
Sequence (Q9C0E4 238-339): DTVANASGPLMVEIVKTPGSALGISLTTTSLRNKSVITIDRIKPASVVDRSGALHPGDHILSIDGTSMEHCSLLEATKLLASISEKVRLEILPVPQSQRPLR
Experiment: holdup assay
Design: key: below the threshold = too weak to quantify, mostly under pKd 3.1 to 4
Settings: plain residues with an end cap or a label only (N-terminal biotin on a linker: ado-ado)

| Binder | pKd |
| --- | --- |
| B1 | below the threshold |
| B2 | below the threshold |
| B3 | below the threshold |
| B4 | below the threshold |

Target: PARD3_3, Q8TEW0
Sequence (Q8TEW0 582-685): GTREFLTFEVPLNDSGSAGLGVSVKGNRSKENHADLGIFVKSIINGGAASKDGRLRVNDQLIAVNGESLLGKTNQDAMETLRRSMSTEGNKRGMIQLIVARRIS
Experiment: holdup assay
Design: key: below the threshold = too weak to quantify, mostly under pKd 3.1 to 4
Settings: plain residues with an end cap or a label only (N-terminal biotin on a linker: ado-ado)

| Binder | pKd |
| --- | --- |
| B1 | below the threshold |
| B2 | below the threshold |
| B3 | below the threshold |
| B4 | 4.49 |

Target: T10, DFNB31_3, Q9P202
Experiment: holdup assay
Design: key: below the threshold = too weak to quantify, mostly under pKd 3.1 to 4
Settings: plain residues with an end cap or a label only (N-terminal biotin on a linker: ado-ado)

| Binder | pKd |
| --- | --- |
| B1 | 3.83 |
| B2 | below the threshold |
| B3 | 3.77 |
| B4 | below the threshold |

Target: TJP2_1, Q9UDY2
Sequence (Q9UDY2 24-128): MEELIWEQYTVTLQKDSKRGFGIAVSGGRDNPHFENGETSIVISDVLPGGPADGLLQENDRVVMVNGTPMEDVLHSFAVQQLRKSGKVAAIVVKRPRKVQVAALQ
Experiment: holdup assay
Design: key: below the threshold = too weak to quantify, mostly under pKd 3.1 to 4
Settings: plain residues with an end cap or a label only (N-terminal biotin on a linker: ado-ado)

| Binder | pKd |
| --- | --- |
| B1 | below the threshold |
| B2 | below the threshold |
| B3 | below the threshold |
| B4 | below the threshold |

Target: TJP1_2, Q07157
Sequence (Q07157 181-274): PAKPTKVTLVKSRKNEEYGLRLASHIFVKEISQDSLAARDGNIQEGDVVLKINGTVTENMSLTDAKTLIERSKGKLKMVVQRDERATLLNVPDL
Experiment: holdup assay
Design: key: below the threshold = too weak to quantify, mostly under pKd 3.1 to 4
Settings: plain residues with an end cap or a label only (N-terminal biotin on a linker: ado-ado)

| Binder | pKd |
| --- | --- |
| B1 | below the threshold |
| B2 | below the threshold |
| B3 | below the threshold |
| B4 | below the threshold |

Target: T11, HTRA3, P83110
Experiment: holdup assay
Design: key: below the threshold = too weak to quantify, mostly under pKd 3.1 to 4
Settings: plain residues with an end cap or a label only (N-terminal biotin on a linker: ado-ado)

| Binder | pKd |
| --- | --- |
| B1 | below the threshold |
| B2 | below the threshold |
| B3 | below the threshold |
| B4 | below the threshold |

Target: NHERF4_2, Q86UT5
Sequence (Q86UT5 220-308): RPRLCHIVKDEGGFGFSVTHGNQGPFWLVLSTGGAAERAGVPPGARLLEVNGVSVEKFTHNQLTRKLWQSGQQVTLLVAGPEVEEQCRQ
Experiment: holdup assay
Design: key: below the threshold = too weak to quantify, mostly under pKd 3.1 to 4
Settings: plain residues with an end cap or a label only (N-terminal biotin on a linker: ado-ado)

| Binder | pKd |
| --- | --- |
| B1 | below the threshold |
| B2 | below the threshold |
| B3 | below the threshold |
| B4 | below the threshold |

Target: T12, SNTG1, Q9NSN8
Experiment: holdup assay
Design: key: below the threshold = too weak to quantify, mostly under pKd 3.1 to 4
Settings: plain residues with an end cap or a label only (N-terminal biotin on a linker: ado-ado)

| Binder | pKd |
| --- | --- |
| B1 | below the threshold |
| B2 | 3.5 |
| B3 | 3.5 |
| B4 | below the threshold |

Target: SCRIB_3, Q14160
Sequence (Q14160 999-1103): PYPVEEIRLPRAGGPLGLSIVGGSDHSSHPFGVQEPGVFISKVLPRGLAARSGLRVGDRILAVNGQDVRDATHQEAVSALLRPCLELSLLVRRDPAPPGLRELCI
Experiment: holdup assay
Design: key: below the threshold = too weak to quantify, mostly under pKd 3.1 to 4
Settings: plain residues with an end cap or a label only (N-terminal biotin on a linker: ado-ado)

| Binder | pKd |
| --- | --- |
| B1 | below the threshold |
| B2 | 4.75 |
| B3 | below the threshold |
| B4 | 4.12 |

Target: GORASP1, Q9BQQ3
Sequence (Q9BQQ3 1-208): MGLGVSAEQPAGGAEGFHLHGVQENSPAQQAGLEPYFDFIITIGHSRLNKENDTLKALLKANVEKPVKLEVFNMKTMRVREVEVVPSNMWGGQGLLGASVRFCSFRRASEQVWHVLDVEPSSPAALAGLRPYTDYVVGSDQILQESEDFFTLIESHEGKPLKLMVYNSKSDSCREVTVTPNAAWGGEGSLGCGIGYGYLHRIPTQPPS
Experiment: holdup assay
Design: key: below the threshold = too weak to quantify, mostly under pKd 3.1 to 4
Settings: plain residues with an end cap or a label only (N-terminal biotin on a linker: ado-ado)

| Binder | pKd |
| --- | --- |
| B1 | 4.13 |
| B2 | below the threshold |
| B3 | below the threshold |
| B4 | 4.32 |

Target: T13, TJP3_3, O95049
Experiment: holdup assay
Design: key: below the threshold = too weak to quantify, mostly under pKd 3.1 to 4
Settings: plain residues with an end cap or a label only (N-terminal biotin on a linker: ado-ado)

| Binder | pKd |
| --- | --- |
| B1 | below the threshold |
| B2 | below the threshold |
| B3 | 3.51 |
| B4 | below the threshold |
